Test results from article doi:10.1101/283192, “Disrupted structure and aberrant function of CHIP mediates the loss of motor and cognitive function in preclinical models of cerebellar CHIPopathy” (bioRxiv, 2018).

B1: CHIP-T246M, His-tagged recombinant (natural protein, human, UniProt Q9UNE7 1-303, looked up)
chain: MKGKEEKEGGARLGAGGGSPEKSPSAQELKEQGNRLFVGRKYPEAAACYGRAITRNPLVAVYYTNRALCYLKMQQHEQALADCRRALELDGQSVKAHFFLGQCQLEMESYDEAIANLQRAYSLAKEQRLNFGDDIPSALRIAKKKRWNSIEERRIHQESELHSYLSRLIAAERERELEECQRNHEGDEDDSHVRAQQACIEAKHDKYMADMDELFSQVDEKRKKRDIPDYLCGKISFELMREPCIMPSGITYDRKDIEEHLQRVGHFDPVTRSPLTQEQLIPNLAMKEVIDAFISENGWVEDY
notes: CHIP (STUB1), human, full-length protein with the SCAR16 patient mutation T246M; T246M is a mutation found in patients (p.T246M); also called T246M CHIP; source: E. coli BL21(DE3), purified (HisTrap HP); copies: 10-12
B2: CHIP-H260Q, His-tagged recombinant (natural protein, human, UniProt Q9UNE7 1-303, looked up)
chain: MKGKEEKEGGARLGAGGGSPEKSPSAQELKEQGNRLFVGRKYPEAAACYGRAITRNPLVAVYYTNRALCYLKMQQHEQALADCRRALELDGQSVKAHFFLGQCQLEMESYDEAIANLQRAYSLAKEQRLNFGDDIPSALRIAKKKRWNSIEERRIHQESELHSYLSRLIAAERERELEECQRNHEGDEDDSHVRAQQACIEAKHDKYMADMDELFSQVDEKRKKRDIPDYLCGKISFELMREPCITPSGITYDRKDIEEQLQRVGHFDPVTRSPLTQEQLIPNLAMKEVIDAFISENGWVEDY
notes: CHIP (STUB1), human, full-length protein with the synthetic mutation H260Q; source: E. coli BL21(DE3), purified (HisTrap HP)

Target: the molecule itself
Test: SEC-MALS; GE Superdex 200 column, Wyatt DAWN HELEOS-II and T-Rex refractometer; 100 µl of 0.5 mg/ml of each sample loaded

Protein	stoichiometry N	binding result
B1	10 to 12	–
B2	–	binds
